According to patent publication US20240043552A1 (Eli Lilly, published 2024):

B1: MetMAb × Matuzumab IgG BsAb, CH1/Cκ design 14.3.1.1 (bispecific antibody)
heavy 1: EVQLVESGGGLVQPGGSLRLSCAASGYTFTSYWLHWVRKAPGKGLEWVGMIDPSNSDTRFNPEFKDRFTISADTSKNTAYLQMNSLRAEDTAVYYCATYRSYVTPLDYWGQGTLVTVSSASTKGPSVFPLAPSSKSTSGGTAALGCLVADYFPEPVTVSWNSGALTSGVHTFPAVLQSSGLYSLASVVTVPSSSLGTQTYICNVNHKPSNTKVDKKVEPKSCDKTHTCPPCPAPELLGGPSVFLFPPKPKDTLMISRTPEVTCVVVDVSHEDPEVKFNWYVDGVEVHNAKTKPREEQYQSTYRVVSVLTVLHQDWLNGKEYKCKVSNKALPAPIEKTISKAKGQPREPQVYTLPPSREEMTDNQVSLTCLVKGFYPSDIAVEWESNGQPENNYKTTPPVLMSDGSFFLASKLTVDKSRWQQGNVFSCSVMHEALHNHYTQKSLSLSPG
light 1: RIQMTQSPSSLSASVGDRVTITCKSSQSLLYTSSQKNYLAWYQDKPGKAPKLLIYWASTRESGVPSRFSGSGSGTDFTLTISSLQPEDFATYYCQQYYAYPWTFGQGTKVEIKRTVAAPSVFIFPPSDEQLKSGTARVVCLLNNFYPREAKVQWKVDNALQSGNSQESVTEQDSKDSTYSLISTLTLSKADYEKHKVYACEVTHQGLSSPVTKSFNRGEC
heavy 2: QVQLVQSGAEVKKPGASVKVSCKASGYTFTSHWMHWVRYAPGQGLEWIGEFNPSNGRTNYNEKFKSKATMTVDTSTNTAYMELSSLRSEDTAVYYCASRDYDYDGRYFDYWGRGTLVTVSSASTKGPSVFPLAPSSKSTSGGTAALGCLVKDYFPEPVTVSWNSGALTSGVHTFPAVLQSSGLYSLSSVVTVPSSSLGTQTYICNVNHKPSNTKVDEKVEPKSCDKTHTCPPCPAPELLGGPSVFLFPPKPKDTLMISRTPEVTCVVVDVSHEDPEVKFNWYVDGVEVHNAKTKPREEQYQSTYRVVSVLTVLHQDWLNGKEYKCKVSNKALPAPIEKTISKAKGQPRRPRVYTLPPSREEMTKNQVSLVCLVKGFYPSDIAVEWESNGQPENNYKTTPPVLDSDGSFFLYSVLTVDKSRWQQGNVFSCSVMHEALHNHYTQKSLSLSPG
light 2: DIQMTQSPSSLSASVGDRVTITCSASSSVTYMYWYQRKPGDAPKLLIYDTSNLASGVPSRFSGSGSGTDYTFTISSLQPEDIATYYCQQWSSHIFTFGQGTKVEIKRTVAAPSVFIFPPSDKQLKSGTASVVCLLNNFYPREAKVQWKVDNALQSGNSQESVTEQDSKDSTYSLSSTLTLSKADYEKHKVYACEVTHQGLSSPVTKSFNRGEC
notes: Human IgG1; also called MetMAb × Matuzumab 14.3.1.1
B2: MetMAb × Matuzumab IgG BsAb, CH1/Cκ design 14.3.1.2 (bispecific antibody)
heavy 1: EVQLVESGGGLVQPGGSLRLSCAASGYTFTSYWLHWVRKAPGKGLEWVGMIDPSNSDTRFNPEFKDRFTISADTSKNTAYLQMNSLRAEDTAVYYCATYRSYVTPLDYWGQGTLVTVSSASTKGPSVFPLAPSSKSTSGGTAALGCLVADYFPEPVTVSWNSGALTSGVHTFPAVLQSSGLYSLGSVVTVPSSSLGTQTYICNVNHKPSNTKVDKKVEPKSCDKTHTCPPCPAPELLGGPSVFLFPPKPKDTLMISRTPEVTCVVVDVSHEDPEVKFNWYVDGVEVHNAKTKPREEQYQSTYRVVSVLTVLHQDWLNGKEYKCKVSNKALPAPIEKTISKAKGQPREPQVYTLPPSREEMTDNQVSLTCLVKGFYPSDIAVEWESNGQPENNYKTTPPVLMSDGSFFLASKLTVDKSRWQQGNVFSCSVMHEALHNHYTQKSLSLSPG
light 1: RIQMTQSPSSLSASVGDRVTITCKSSQSLLYTSSQKNYLAWYQDKPGKAPKLLIYWASTRESGVPSRFSGSGSGTDFTLTISSLQPEDFATYYCQQYYAYPWTFGQGTKVEIKRTVAAPSVFIFPPSDEQLKSGTARVVCLLNNFYPREAKVQWKVDNALQSGNSQESVTEQDSKDSTYSLISTLTLSKADYEKHKVYACEVTHQGLSSPVTKSFNRGEC
heavy 2: QVQLVQSGAEVKKPGASVKVSCKASGYTFTSHWMHWVRYAPGQGLEWIGEFNPSNGRTNYNEKFKSKATMTVDTSTNTAYMELSSLRSEDTAVYYCASRDYDYDGRYFDYWGRGTLVTVSSASTKGPSVFPLAPSSKSTSGGTAALGCLVKDYFPEPVTVSWNSGALTSGVHTFPAVLQSSGLYSLSSVVTVPSSSLGTQTYICNVNHKPSNTKVDEKVEPKSCDKTHTCPPCPAPELLGGPSVFLFPPKPKDTLMISRTPEVTCVVVDVSHEDPEVKFNWYVDGVEVHNAKTKPREEQYQSTYRVVSVLTVLHQDWLNGKEYKCKVSNKALPAPIEKTISKAKGQPRRPRVYTLPPSREEMTKNQVSLVCLVKGFYPSDIAVEWESNGQPENNYKTTPPVLDSDGSFFLYSVLTVDKSRWQQGNVFSCSVMHEALHNHYTQKSLSLSPG
light 2: DIQMTQSPSSLSASVGDRVTITCSASSSVTYMYWYQRKPGDAPKLLIYDTSNLASGVPSRFSGSGSGTDYTFTISSLQPEDIATYYCQQWSSHIFTFGQGTKVEIKRTVAAPSVFIFPPSDKQLKSGTASVVCLLNNFYPREAKVQWKVDNALQSGNSQESVTEQDSKDSTYSLSSTLTLSKADYEKHKVYACEVTHQGLSSPVTKSFNRGEC
notes: Human IgG1; also called MetMAb × Matuzumab 14.3.1.2
B3: Pertuzumab × Matuzumab IgG BsAb, CH1/Cκ Wild-Type (AB / H4DR variable domain designs, 7.8.60 CH3, N297Q) (bispecific antibody)
heavy 1: EVQLVESGGGLVQPGGSLRLSCAASGFTFTDYTMDWVRKAPGKGLEWVADVNPNSGGSIYNQEFKGRFTLSVDRSKNTLYLQMNSLRAEDTAVYYCARNLGPSFYFDYWGQGTLVTVSSASTKGPSVFPLAPSSKSTSGGTAALGCLVKDYFPEPVTVSWNSGALTSGVHTFPAVLQSSGLYSLSSVVTVPSSSLGTQTYICNVNHKPSNTKVDKKVEPKSCDKTHTCPPCPAPELLGGPSVFLFPPKPKDTLMISRTPEVTCVVVDVSHEDPEVKFNWYVDGVEVHNAKTKPREEQYQSTYRVVSVLTVLHQDWLNGKEYKCKVSNKALPAPIEKTISKAKGQPREPQVYTLPPSREEMTDNQVSLTCLVKGFYPSDIAVEWESNGQPENNYKTTPPVLMSDGSFFLASKLTVDKSRWQQGNVFSCSVMHEALHNHYTQKSLSLSPG
light 1: RIQMTQSPSSLSASVGDRVTITCKASQDVSIGVAWYQDKPGKAPKLLIYSASYRYTGVPSRFSGSGSGTDFTLTISSLQPEDFATYYCQQYYIYPYTFGQGTKVEIKRTVAAPSVFIFPPSDEQLKSGTASVVCLLNNFYPREAKVQWKVDNALQSGNSQESVTEQDSKDSTYSLSSTLTLSKADYEKHKVYACEVTHQGLSSPVTKSFNRGEC
heavy 2: QVQLVQSGAEVKKPGASVKVSCKASGYTFTSHWMHWVRYAPGQGLEWIGEFNPSNGRTNYNEKFKSKATMTVDTSTNTAYMELSSLRSEDTAVYYCASRDYDYDGRYFDYWGRGTLVTVSSASTKGPSVFPLAPSSKSTSGGTAALGCLVKDYFPEPVTVSWNSGALTSGVHTFPAVLQSSGLYSLSSVVTVPSSSLGTQTYICNVNHKPSNTKVDKKVEPKSCDKTHTCPPCPAPELLGGPSVFLFPPKPKDTLMISRTPEVTCVVVDVSHEDPEVKFNWYVDGVEVHNAKTKPREEQYQSTYRVVSVLTVLHQDWLNGKEYKCKVSNKALPAPIEKTISKAKGQPRRPRVYTLPPSREEMTKNQVSLVCLVKGFYPSDIAVEWESNGQPENNYKTTPPVLDSDGSFFLYSVLTVDKSRWQQGNVFSCSVMHEALHNHYTQKSLSLSPG
light 2: DIQMTQSPSSLSASVGDRVTITCSASSSVTYMYWYQRKPGDAPKLLIYDTSNLASGVPSRFSGSGSGTDYTFTISSLQPEDIATYYCQQWSSHIFTFGQGTKVEIKRTVAAPSVFIFPPSDEQLKSGTASVVCLLNNFYPREAKVQWKVDNALQSGNSQESVTEQDSKDSTYSLSSTLTLSKADYEKHKVYACEVTHQGLSSPVTKSFNRGEC
notes: Human IgG1; also called Pertuzumab × Matuzumab Wild-Type

How the values were obtained:
Assay in all cases: sandwich ELISA with mis-matched antigens
hLTβR-Fc-biotin = biological target: T1, hLTβR-Fc-biotin (human, UniProt P36941 28-227, limits assumed, biotin-labelled with EZ-LINK Sulfo-NHS-LC-Biotin)
T1 construct: Bought (R&D systems); Detection antigen of the sandwich; also called LTPR (as printed once); not shown: Fc of the bought fusion protein
T1 sequence (P36941 28-227 limits assumed): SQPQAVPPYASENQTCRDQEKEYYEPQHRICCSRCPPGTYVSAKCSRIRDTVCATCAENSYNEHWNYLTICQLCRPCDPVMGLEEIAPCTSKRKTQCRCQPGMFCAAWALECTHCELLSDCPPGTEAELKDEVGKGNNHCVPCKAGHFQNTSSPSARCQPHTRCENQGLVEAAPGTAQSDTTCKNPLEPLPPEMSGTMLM
Method: (§1) The dual-binding activity of the same synthesized IgG BsAbs is assessed using a sandwich ELISA. […] Sandwich ELISAs are developed for detecting the four different BsAb test articles; one for detecting anti-HER-2/anti-EGFR BsAb activity, one for detecting anti-HER-2/anti-LTPR BsAb activity, one for detecting anti-cMET/anti-EGFR BsAb activity and one for detecting anti-cMET/anti-LTPR BsAb activity. For all ELISAs, clear 96-well round bottom high binding Immulon microtiter plates (Greiner bio-one, cat #650061) are coated overnight at 2-8° C. with 50 μL/well 1 μg/mL hHER-2-Fc or 1 μg/mL hHGFR(cMet)-Fc (both from R&D systems) in a 50 mM Na2CO3 pH 8.3 buffer. The plates are washed 4 times with PBST and blocked with 200 μL/well casein buffer (Pierce) for 1 hr at room temperature. The plates are then washed 4 times with PBST and the parental IgG controls or BsAb IgG test articles are added at 50 μL/well and […] and serially diluted 1:3 down the plate. The controls and test articles are incubated on the plate for 1 hr at room temperature. The plates are then washed 4 times with PBST and 50 μL/well 1 μg/mL hEGFR-Fc-biotin or hLTβR-Fc-biotin (both from R&D systems) is added for 1 hr at room temperature. The plates are then washed 4 times with PBST followed by the addition of a 50 μL/well streptavidin-AP (Jackson Immunoresearch Labs Cat. #016-050-084) diluted 1:1000 in casein buffer. The streptavidin-AP is incubated in each well for 1 hr at room temperature. The plates are then washed 4 times with PBST and 100 μL/well 1-step PNPP substrate is added (Thermo Scientific Cat. #37621). After approximately 5-15 minutes, plates are read for Absorbance (405 nm) using a SPECTRAMAX® UV plate reader (Molecular Devices). Biotin-labeling of the hEGFR-Fc and hLTβR-Fc proteins is performed using EZ-LINK™ Sulfo-NHS-LC-Biotin (Thermo Scientific Cat. #21327) according to the manufacturer's protocol.

hHER-2-Fc = biological target: T2, hHER-2-Fc (human, UniProt P04626 23-652)
T2 construct: Bought (R&D systems); Coated on the plate; not shown: Fc of the bought fusion protein
Method: as §1

hHGFR(cMet)-Fc = biological target: T3, hHGFR(cMet)-Fc (human, UniProt P08581 25-932)
T3 construct: Bought (R&D systems); Coated on the plate; not shown: Fc of the bought fusion protein
T3 sequence (P08581 25-932): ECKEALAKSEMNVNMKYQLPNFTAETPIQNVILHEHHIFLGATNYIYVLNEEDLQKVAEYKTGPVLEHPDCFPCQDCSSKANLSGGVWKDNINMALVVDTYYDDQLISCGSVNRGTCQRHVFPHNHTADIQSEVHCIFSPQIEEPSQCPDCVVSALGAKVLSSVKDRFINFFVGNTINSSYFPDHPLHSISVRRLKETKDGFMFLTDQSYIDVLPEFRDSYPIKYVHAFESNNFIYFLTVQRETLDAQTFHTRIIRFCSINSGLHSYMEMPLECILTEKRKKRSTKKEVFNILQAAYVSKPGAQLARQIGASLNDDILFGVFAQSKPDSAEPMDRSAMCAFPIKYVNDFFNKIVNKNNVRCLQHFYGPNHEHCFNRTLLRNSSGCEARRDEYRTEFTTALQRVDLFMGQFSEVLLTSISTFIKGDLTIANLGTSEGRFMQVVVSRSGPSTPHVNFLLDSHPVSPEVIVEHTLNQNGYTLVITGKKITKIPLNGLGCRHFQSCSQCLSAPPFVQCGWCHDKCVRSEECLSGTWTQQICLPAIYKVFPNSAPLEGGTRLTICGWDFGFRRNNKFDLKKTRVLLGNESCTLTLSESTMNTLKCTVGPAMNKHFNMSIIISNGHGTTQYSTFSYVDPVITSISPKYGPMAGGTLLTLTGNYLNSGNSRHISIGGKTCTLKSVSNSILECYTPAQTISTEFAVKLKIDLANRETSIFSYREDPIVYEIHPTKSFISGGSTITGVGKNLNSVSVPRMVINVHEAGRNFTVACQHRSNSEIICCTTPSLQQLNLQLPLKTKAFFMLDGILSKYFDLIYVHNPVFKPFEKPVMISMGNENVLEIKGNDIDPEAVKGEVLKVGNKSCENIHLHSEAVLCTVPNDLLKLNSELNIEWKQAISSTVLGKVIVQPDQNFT
Method: as §1

Binder | binding result (hLTβR-Fc-biotin) | binding result (hHER-2-Fc) | binding result (hHGFR(cMet)-Fc)
B1 | no binding | no binding | 
B2 | no binding | no binding | 
B3 | no binding |  | no binding
